# Positions count from the first letter of the chain named. In names and notes the source's numbering stands.
# B1: 1D2 SDR mutant HD31A (antibody, IgG1, V domains shown)
# VH: QVQLVQSGAEVKKPGASVKVSCEASGYTFTAKYLHWVRQAPGQGLEWMAWINPKSGGTFYAQNFKGRVTVTRDTSINTAYLELTSLRLDDTSTYYCARGRDYYDQGAADLWGQGTMVTVSS
# VL: DIQLTQSPSSLSASVGDRVTITCRASQGINSVLAWYQQKPGKAPKLLLYAASKLESGVPSRFSGSGSGTDYTLTISSLQPEDFGTYYCQQYYSPVRTFGQGTKVEIKR
# notes: also called X1 A
# B2: 1D2 SDR mutant HK32T (antibody, IgG1, V domains shown)
# VH: B1 VH with A31D, K32T
# VL: B1 VL
# notes: also called X2 T
# B3: 1D2 SDR mutant HK54Q (antibody, IgG1, V domains shown)
# VH: B1 VH with A31D, K54Q
# VL: B1 VL
# notes: also called X3 Q
# B4: 1D2 SDR mutant HK32A (antibody, IgG1, V domains shown)
# VH: B1 VH with A31D, K32A
# VL: B1 VL
# notes: also called X2 A
# B5: 1D2 SDR mutant HK32R (antibody, V domains shown)
# VH: B1 VH with A31D, K32R
# VL: B1 VL
# notes: not the clone labelled 32R, which is light chain V32R; also called X2 R
# B6: 1D2 SDR mutant HK32S (antibody, IgG1, V domains shown)
# VH: B1 VH with A31D, K32S
# VL: B1 VL
# notes: also called X2 S
# B7: 1D2 SDR mutant HK54E (antibody, IgG1, V domains shown)
# VH: B1 VH with A31D, K54E
# VL: B1 VL
# notes: also called X3 E
# B8: 1D2 SDR mutant HK32P (antibody, IgG1, V domains shown)
# VH: B1 VH with A31D, K32P
# VL: B1 VL
# notes: also called X2 P
# B9: 1D2 SDR mutant HK32Q (antibody, IgG1, V domains shown)
# VH: B1 VH with A31D, K32Q
# VL: B1 VL
# notes: also called X2 Q
# B10: 1D2 SDR mutant HD31W (antibody, IgG1, V domains shown)
# VH: B1 VH with A31W
# VL: B1 VL
# notes: also called X1 W
# B11: 1D2 SDR mutant HK54C (antibody, IgG1, V domains shown)
# VH: B1 VH with A31D, K54C
# VL: B1 VL
# notes: also called X3 C
# B12: 1D2 SDR mutant HD31L (antibody, IgG1, V domains shown)
# VH: B1 VH with A31L
# VL: B1 VL
# notes: also called X1 L
# B13: 1D2 SDR mutant HK32N (antibody, IgG1, V domains shown)
# VH: B1 VH with A31D, K32N
# VL: B1 VL
# notes: also called X2 N
# B14: 1D2 SDR mutant HD31C (antibody, IgG1, V domains shown)
# VH: B1 VH with A31C
# VL: B1 VL
# notes: also called X1 C
# B15: 1D2 SDR mutant HD31V (antibody, IgG1, V domains shown)
# VH: B1 VH with A31V
# VL: B1 VL
# notes: also called X1 V
# B16: 1D2 SDR mutant HD31Q (antibody, IgG1, V domains shown)
# VH: B1 VH with A31Q
# VL: B1 VL
# notes: also called X1 Q
# B17: 1D2 SDR mutant HD31T (antibody, IgG1, V domains shown)
# VH: B1 VH with A31T
# VL: B1 VL
# notes: also called X1 T
# B18: 1D2 SDR mutant HK54A (antibody, IgG1, V domains shown)
# VH: B1 VH with A31D, K54A
# VL: B1 VL
# notes: also called X3 A
# B19: 1D2 SDR mutant HK32E (antibody, IgG1, V domains shown)
# VH: B1 VH with A31D, K32E
# VL: B1 VL
# notes: also called X2 E
# B20: 1D2 SDR mutant HD31G (antibody, IgG1, V domains shown)
# VH: B1 VH with A31G
# VL: B1 VL
# notes: also called X1 G
# B21: 1D2 SDR mutant HK54M (antibody, IgG1, V domains shown)
# VH: B1 VH with A31D, K54M
# VL: B1 VL
# notes: also called X3 M
# B22: 1D2 SDR mutant HK32D (antibody, IgG1, V domains shown)
# VH: B1 VH with A31D, K32D
# VL: B1 VL
# notes: also called X2 D
# B23: 1D2 SDR mutant HK32C (antibody, IgG1, V domains shown)
# VH: B1 VH with A31D, K32C
# VL: B1 VL
# notes: also called X2 C
# B24: 1D2 SDR mutant HK54F (antibody, IgG1, V domains shown)
# VH: B1 VH with A31D, K54F
# VL: B1 VL
# notes: also called X3 F
# B25: 1D2 SDR mutant HK54S (antibody, IgG1, V domains shown)
# VH: B1 VH with A31D, K54S
# VL: B1 VL
# notes: also called X3 S
# B26: 1D2 SDR mutant HD31R (antibody, IgG1, V domains shown)
# VH: B1 VH with A31R
# VL: B1 VL
# notes: also called X1 R
# B27: 1D2 SDR mutant HD31P (antibody, IgG1, V domains shown)
# VH: B1 VH with A31P
# VL: B1 VL
# notes: also called X1 P
# B28: 1D2 SDR mutant HK32F (antibody, IgG1, V domains shown)
# VH: B1 VH with A31D, K32F
# VL: B1 VL
# notes: also called X2 F
# B29: 1D2 SDR mutant HK54I (antibody, IgG1, V domains shown)
# VH: B1 VH with A31D, K54I
# VL: B1 VL
# notes: also called X3 I
# B30: 1D2 SDR mutant HK54T (antibody, IgG1, V domains shown)
# VH: B1 VH with A31D, K54T
# VL: B1 VL
# notes: also called X3 T
# B31: 1D2 SDR mutant HK32L (antibody, IgG1, V domains shown)
# VH: B1 VH with A31D, K32L
# VL: B1 VL
# notes: also called X2 L
# B32: 1D2 SDR mutant HD31N (antibody, IgG1, V domains shown)
# VH: B1 VH with A31N
# VL: B1 VL
# notes: also called X1 N
# B33: 1D2 SDR mutant HK54N (antibody, IgG1, V domains shown)
# VH: B1 VH with A31D, K54N
# VL: B1 VL
# notes: also called X3 N
# B34: 1D2 SDR mutant HK32H (antibody, IgG1, V domains shown)
# VH: B1 VH with A31D, K32H
# VL: B1 VL
# notes: also called X2 H
# B35: 1D2 SDR mutant HD31E (antibody, IgG1, V domains shown)
# VH: B1 VH with A31E
# VL: B1 VL
# notes: also called X1 E
# B36: 1D2 SDR mutant HK54P (antibody, IgG1, V domains shown)
# VH: B1 VH with A31D, K54P
# VL: B1 VL
# notes: also called X3 P
# B37: 1D2 SDR mutant HK54R (antibody, IgG1, V domains shown)
# VH: B1 VH with A31D, K54R
# VL: B1 VL
# notes: also called X3 R
# B38: 1D2 SDR mutant HK54H (antibody, IgG1, V domains shown)
# VH: B1 VH with A31D, K54H
# VL: B1 VL
# notes: also called X3 H
# B39: 1D2 SDR mutant HK32V (antibody, IgG1, V domains shown)
# VH: B1 VH with A31D, K32V
# VL: B1 VL
# notes: also called X2 V
# B40: 1D2 SDR mutant HD31S (antibody, IgG1, V domains shown)
# VH: B1 VH with A31S
# VL: B1 VL
# notes: also called X1 S
# Target: T1, recombinant human GM-CSF (human, UniProt P04141 18-144)
# T1 construct: also called rhGM-CSF; CSF2
# Assay: ELISA on coated rhGM-CSF, UBA relative to 1D2
# Text: Some of the residues in the CDRs are essential for epitope binding affinity and/or specificity. A number of computational methods were developed to detect these functional residues, generally known as ‘specificity-determining resides’ (SDRs). […] Based on the analysis, 7 amino acid residues in VH and 3 amino acid residues in VL were selected as the SDRs. The residues are labeled X₁ to X₁₀ for the ease of reference. The SDRs on VH are: Heavy chain D31 (HD31) (X₁), HK32 (X₂), HK54(X₃), HR100 (X₄), HY102 (X₅), HY103 (X₆) and HQ105 (X₇). The SDRs on VL are Light chain V32 (LV32) (X₈), LP94 (X₉) and LV95 (X₁₀). The SDRs were subsequently mutated by site-directed mutagenesis to other amino acids to generate mutant VH or VL clones. HEK293 cells were co-transfected with a vector encoding a mutant VH paired with a vector encoding a wild type VL or a vector encoding a wild type VH paired with a vector encoding a mutant VL. The antibody clones were harvested from the culture medium. The binding affinity of each antibody clone to human GM-CSF was tested by ELISA. The ELISA was done according to the following procedures. ELISA plate was coated with 50 μl of rhGM-CSF at 1 μg/mL. The plate was washed with 200 μl PBST for three times, followed by blocking with 1% BSA for 1 hour at room temperature. The antibody clones to be tested were diluted at 1:12000. 100 μl of the diluted antibodies were added to the cell at 100 μl/well. The plate was incubated at room temperature for 1 hour. The plate was then washed and incubated with 1:5000 diluted goat-anti-human secondary antibody conjugated with HRP at room temperature for one hour. The ELISA assay was developed with 100 μl developing buffer containing H₂O₂-Amplx Red per well in the dark for 5 min and the fluorescence intensity was read at Ex.530/Em.590 nm, with cutoff at 570 nm. The Unit Binding Activity (UBA) of each sample was calculated as the fluorescence signal/antibody clone dilution factor.
# T1 sequence (P04141 18-144 limits assumed): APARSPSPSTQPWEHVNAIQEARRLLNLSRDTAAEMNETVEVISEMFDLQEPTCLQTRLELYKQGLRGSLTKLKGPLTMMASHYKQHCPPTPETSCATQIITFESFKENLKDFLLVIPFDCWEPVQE
row,Binder,binding affinity % of 1D2 [%]
1,B1,66
2,B2,74
3,B3,93
4,B4,61
5,B5,90
6,B6,78
7,B7,113
8,B8,88
9,B9,91
10,B10,72
11,B11,76
12,B12,57
13,B13,97
14,B14,79
15,B15,71
16,B16,74
17,B17,44
18,B18,117
19,B19,94
20,B20,58

row,Binder,binding affinity % of 1D2 [%]
1,B21,106
2,B22,90
3,B23,86
4,B24,67
5,B25,82
6,B26,73
7,B27,69
8,B28,63
9,B29,100
10,B30,101
11,B31,60
12,B32,74
13,B33,73
14,B34,76
15,B35,63
16,B36,85
17,B37,98
18,B38,74
19,B39,90
20,B40,47

# From patent US20210309732A1 (ELIXIRON IMMUNOTHERAPEUTICS HONG KONG, published 2021)
